Test results: the supplement of paper PMC7125110
± gives the standard error. Variants at the floor of the assay were thinned out.

B1: glmS ribozyme (parent)
chain: AUAAAAGCGCCAGAACUACAGAAAUGUAGUUGACGAGGAGGAGGUUUAUCGAAUUUUCGGCGGAUGCCUCCAAA

Tests used:
Conditions in all cases: with glucosamine-6-phosphate
[1] = variants of: B1; test: self-cleavage kobs at 160 uM GlcN6P; higher = faster cleavage; RNA array
How it was run: (§1)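 Glucosamine-6-phosphate in HEPES/KCl/Mg(OAc)2 buffer, at 40 μM to 10 mM, was flowed over barcoded ribozyme variants transcribed in situ by E. coli RNA polymerase on sequenced MiSeq chips. Tracking was through a hybridised Cy3 probe at 37 °C. kobs, kcat and KM came from exponential decay fits and weighted Michaelis–Menten fits of normalised per-tile medians.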

[2] = variants of: B1; test: self-cleavage kobs at 640 uM GlcN6P; higher = faster cleavage; RNA array
How it was run: as §1

[3] = variants of: B1; test: self-cleavage kobs at 2500 uM GlcN6P; higher = faster cleavage; RNA array
How it was run: as §1

[4] = variants of: B1; test: self-cleavage kobs at 10000 uM GlcN6P; higher = faster cleavage; RNA array
How it was run: as §1

G35A U54G
self-cleavage kobs at 160 uM GlcN6P [1]: < 1e-05 s⁻¹
self-cleavage kobs at 640 uM GlcN6P [2]: < 1e-05 s⁻¹
self-cleavage kobs at 2500 uM GlcN6P [3]: < 1e-05 s⁻¹

C16U C58A
self-cleavage kobs at 160 uM GlcN6P [1]: 0.000528 ± 0.00025 s⁻¹
self-cleavage kobs at 640 uM GlcN6P [2]: 0.000131 ± 2.7e-05 s⁻¹
self-cleavage kobs at 2500 uM GlcN6P [3]: 0.000305 ± 6.1e-05 s⁻¹
self-cleavage kobs at 10000 uM GlcN6P [4]: 0.00094 ± 0.00015 s⁻¹

A36U G41C
self-cleavage kobs at 160 uM GlcN6P [1]: < 1e-05 s⁻¹
self-cleavage kobs at 2500 uM GlcN6P [3]: < 1e-05 s⁻¹
self-cleavage kobs at 10000 uM GlcN6P [4]: < 1e-05 s⁻¹

C16A A33G
self-cleavage kobs at 160 uM GlcN6P [1]: < 1e-05 s⁻¹
self-cleavage kobs at 10000 uM GlcN6P [4]: < 1e-05 s⁻¹

A33U C34A C58U
self-cleavage kobs at 160 uM GlcN6P [1]: < 1e-05 s⁻¹
self-cleavage kobs at 2500 uM GlcN6P [3]: < 1e-05 s⁻¹

U31A A42U U45A G62U
self-cleavage kobs at 160 uM GlcN6P [1]: < 1e-05 s⁻¹
self-cleavage kobs at 2500 uM GlcN6P [3]: < 1e-05 s⁻¹

U30C U54A C68A
self-cleavage kobs at 160 uM GlcN6P [1]: 7.12e-05 ± 2.1e-05 s⁻¹
self-cleavage kobs at 2500 uM GlcN6P [3]: 5.33e-05 ± 2.5e-05 s⁻¹

G35A G40A U46C G60U
self-cleavage kobs at 160 uM GlcN6P [1]: < 1e-05 s⁻¹
self-cleavage kobs at 2500 uM GlcN6P [3]: < 1e-05 s⁻¹

U31A G63C C68G
self-cleavage kobs at 160 uM GlcN6P [1]: < 1e-05 s⁻¹

U30A C50A
self-cleavage kobs at 160 uM GlcN6P [1]: < 1e-05 s⁻¹

A36G U57G
self-cleavage kobs at 160 uM GlcN6P [1]: < 1e-05 s⁻¹
self-cleavage kobs at 640 uM GlcN6P [2]: < 1e-05 s⁻¹
self-cleavage kobs at 2500 uM GlcN6P [3]: < 1e-05 s⁻¹
self-cleavage kobs at 10000 uM GlcN6P [4]: < 1e-05 s⁻¹

A36G U45C
self-cleavage kobs at 160 uM GlcN6P [1]: < 1e-05 s⁻¹
self-cleavage kobs at 640 uM GlcN6P [2]: < 1e-05 s⁻¹
self-cleavage kobs at 2500 uM GlcN6P [3]: < 1e-05 s⁻¹

C16U G38U U54C G66U C71A
self-cleavage kobs at 160 uM GlcN6P [1]: < 1e-05 s⁻¹
self-cleavage kobs at 640 uM GlcN6P [2]: < 1e-05 s⁻¹

C16G G62C
self-cleavage kobs at 160 uM GlcN6P [1]: < 1e-05 s⁻¹
self-cleavage kobs at 640 uM GlcN6P [2]: < 1e-05 s⁻¹
self-cleavage kobs at 2500 uM GlcN6P [3]: < 1e-05 s⁻¹

C34U G40U C71U
self-cleavage kobs at 160 uM GlcN6P [1]: < 1e-05 s⁻¹
self-cleavage kobs at 2500 uM GlcN6P [3]: < 1e-05 s⁻¹

C34A G41A C71U
self-cleavage kobs at 160 uM GlcN6P [1]: < 1e-05 s⁻¹

G35C G62U C67G C70U
self-cleavage kobs at 160 uM GlcN6P [1]: < 1e-05 s⁻¹

C16G G44C C68U
self-cleavage kobs at 160 uM GlcN6P [1]: < 1e-05 s⁻¹
self-cleavage kobs at 2500 uM GlcN6P [3]: < 1e-05 s⁻¹

G32C A42G A64U
self-cleavage kobs at 160 uM GlcN6P [1]: < 1e-05 s⁻¹
self-cleavage kobs at 640 uM GlcN6P [2]: < 1e-05 s⁻¹
self-cleavage kobs at 2500 uM GlcN6P [3]: < 1e-05 s⁻¹

G29C U69G
self-cleavage kobs at 160 uM GlcN6P [1]: 3.65e-05 ± 9.9e-06 s⁻¹
self-cleavage kobs at 640 uM GlcN6P [2]: 9.83e-05 ± 1.7e-05 s⁻¹
self-cleavage kobs at 2500 uM GlcN6P [3]: 4.13e-05 ± 1.1e-05 s⁻¹

G29C U69A
self-cleavage kobs at 160 uM GlcN6P [1]: 4.08e-05 ± 1.4e-05 s⁻¹
self-cleavage kobs at 640 uM GlcN6P [2]: 8.01e-05 ± 1.7e-05 s⁻¹
self-cleavage kobs at 2500 uM GlcN6P [3]: 2.32e-05 ± 1e-05 s⁻¹

G29A U31G C50U C68A
self-cleavage kobs at 160 uM GlcN6P [1]: 5.27e-05 ± 2.2e-05 s⁻¹
self-cleavage kobs at 640 uM GlcN6P [2]: 7.43e-05 ± 2.9e-05 s⁻¹
self-cleavage kobs at 2500 uM GlcN6P [3]: 8.2e-05 ± 3.2e-05 s⁻¹

A33C G41C G60A
self-cleavage kobs at 160 uM GlcN6P [1]: < 1e-05 s⁻¹
self-cleavage kobs at 640 uM GlcN6P [2]: < 1e-05 s⁻¹
self-cleavage kobs at 2500 uM GlcN6P [3]: < 1e-05 s⁻¹

G35A C70G
self-cleavage kobs at 160 uM GlcN6P [1]: < 1e-05 s⁻¹
self-cleavage kobs at 640 uM GlcN6P [2]: < 1e-05 s⁻¹

A15G A53G U65C
self-cleavage kobs at 160 uM GlcN6P [1]: 6.49e-05 ± 1.6e-05 s⁻¹
self-cleavage kobs at 640 uM GlcN6P [2]: 0.000264 ± 6.9e-05 s⁻¹
self-cleavage kobs at 2500 uM GlcN6P [3]: 0.000485 ± 0.00011 s⁻¹

C34A C67G C68A
self-cleavage kobs at 160 uM GlcN6P [1]: 6.53e-05 ± 1.9e-05 s⁻¹
self-cleavage kobs at 640 uM GlcN6P [2]: 6.33e-05 ± 2e-05 s⁻¹
self-cleavage kobs at 2500 uM GlcN6P [3]: 0.000284 ± 8.7e-05 s⁻¹

G29A A52C
self-cleavage kobs at 160 uM GlcN6P [1]: < 1e-05 s⁻¹
self-cleavage kobs at 640 uM GlcN6P [2]: < 1e-05 s⁻¹
self-cleavage kobs at 10000 uM GlcN6P [4]: < 1e-05 s⁻¹

G26U G35A C50G U56G
self-cleavage kobs at 160 uM GlcN6P [1]: 6.16e-05 ± 2.2e-05 s⁻¹
self-cleavage kobs at 2500 uM GlcN6P [3]: 8.89e-05 ± 1.8e-05 s⁻¹

A33C A64U C70A
self-cleavage kobs at 160 uM GlcN6P [1]: < 1e-05 s⁻¹
self-cleavage kobs at 2500 uM GlcN6P [3]: < 1e-05 s⁻¹

C34G U49G A53G G63C
self-cleavage kobs at 160 uM GlcN6P [1]: < 1e-05 s⁻¹
self-cleavage kobs at 640 uM GlcN6P [2]: < 1e-05 s⁻¹

G32A U55G G59C C70G
self-cleavage kobs at 160 uM GlcN6P [1]: 6.64e-05 ± 2.6e-05 s⁻¹
self-cleavage kobs at 640 uM GlcN6P [2]: 0.000174 ± 6.5e-05 s⁻¹
self-cleavage kobs at 2500 uM GlcN6P [3]: 5.89e-05 ± 2.5e-05 s⁻¹

A15U C50A A64U C71U
self-cleavage kobs at 160 uM GlcN6P [1]: < 1e-05 s⁻¹

C34U G51C
self-cleavage kobs at 160 uM GlcN6P [1]: < 1e-05 s⁻¹
self-cleavage kobs at 640 uM GlcN6P [2]: < 1e-05 s⁻¹
self-cleavage kobs at 2500 uM GlcN6P [3]: < 1e-05 s⁻¹
self-cleavage kobs at 10000 uM GlcN6P [4]: < 1e-05 s⁻¹

A33G G41U C50U C71U
self-cleavage kobs at 160 uM GlcN6P [1]: < 1e-05 s⁻¹
self-cleavage kobs at 640 uM GlcN6P [2]: < 1e-05 s⁻¹

A20U U56C
self-cleavage kobs at 160 uM GlcN6P [1]: 0.000306 ± 8.2e-05 s⁻¹
self-cleavage kobs at 2500 uM GlcN6P [3]: 0.0029 ± 0.00075 s⁻¹

A33C G35C U45G A64C
self-cleavage kobs at 160 uM GlcN6P [1]: < 1e-05 s⁻¹
self-cleavage kobs at 2500 uM GlcN6P [3]: < 1e-05 s⁻¹

A36G C50A
self-cleavage kobs at 160 uM GlcN6P [1]: < 1e-05 s⁻¹
self-cleavage kobs at 640 uM GlcN6P [2]: < 1e-05 s⁻¹

C34U G37C
self-cleavage kobs at 160 uM GlcN6P [1]: < 1e-05 s⁻¹
self-cleavage kobs at 10000 uM GlcN6P [4]: < 1e-05 s⁻¹

U30C G35U A39C
self-cleavage kobs at 160 uM GlcN6P [1]: < 1e-05 s⁻¹
self-cleavage kobs at 2500 uM GlcN6P [3]: < 1e-05 s⁻¹

G32C A64G
self-cleavage kobs at 160 uM GlcN6P [1]: < 1e-05 s⁻¹
self-cleavage kobs at 2500 uM GlcN6P [3]: 5.42e-05 ± 1.9e-05 s⁻¹

A33C G40U G44C U45A G62U
self-cleavage kobs at 160 uM GlcN6P [1]: < 1e-05 s⁻¹

A15G C16G A42G C67G
self-cleavage kobs at 160 uM GlcN6P [1]: 7.28e-05 ± 3.4e-05 s⁻¹
self-cleavage kobs at 640 uM GlcN6P [2]: 0.000348 ± 6.7e-05 s⁻¹
self-cleavage kobs at 2500 uM GlcN6P [3]: 0.000115 ± 3.5e-05 s⁻¹
self-cleavage kobs at 10000 uM GlcN6P [4]: 0.000521 ± 0.00022 s⁻¹

C34A C61A
self-cleavage kobs at 160 uM GlcN6P [1]: < 1e-05 s⁻¹
self-cleavage kobs at 640 uM GlcN6P [2]: < 1e-05 s⁻¹
self-cleavage kobs at 2500 uM GlcN6P [3]: < 1e-05 s⁻¹

A33G A52G U56A
self-cleavage kobs at 160 uM GlcN6P [1]: < 1e-05 s⁻¹
self-cleavage kobs at 10000 uM GlcN6P [4]: < 1e-05 s⁻¹

G35C G62U A64U
self-cleavage kobs at 160 uM GlcN6P [1]: < 1e-05 s⁻¹
self-cleavage kobs at 2500 uM GlcN6P [3]: < 1e-05 s⁻¹

C16G A39C U45C A48C
self-cleavage kobs at 160 uM GlcN6P [1]: < 1e-05 s⁻¹
self-cleavage kobs at 640 uM GlcN6P [2]: < 1e-05 s⁻¹

A36C U54C
self-cleavage kobs at 160 uM GlcN6P [1]: < 1e-05 s⁻¹
self-cleavage kobs at 10000 uM GlcN6P [4]: < 1e-05 s⁻¹

U30G A42G U56C
self-cleavage kobs at 160 uM GlcN6P [1]: 0.000132 ± 4.7e-05 s⁻¹
self-cleavage kobs at 640 uM GlcN6P [2]: 0.000353 ± 0.00011 s⁻¹
self-cleavage kobs at 2500 uM GlcN6P [3]: 0.000492 ± 0.00016 s⁻¹

G35U A36G A42G U55C
self-cleavage kobs at 160 uM GlcN6P [1]: < 1e-05 s⁻¹
self-cleavage kobs at 2500 uM GlcN6P [3]: < 1e-05 s⁻¹

G35A C50A
self-cleavage kobs at 160 uM GlcN6P [1]: < 1e-05 s⁻¹
self-cleavage kobs at 640 uM GlcN6P [2]: < 1e-05 s⁻¹
self-cleavage kobs at 2500 uM GlcN6P [3]: < 1e-05 s⁻¹

G35A G63C
self-cleavage kobs at 160 uM GlcN6P [1]: < 1e-05 s⁻¹
self-cleavage kobs at 640 uM GlcN6P [2]: < 1e-05 s⁻¹
self-cleavage kobs at 2500 uM GlcN6P [3]: < 1e-05 s⁻¹

U30C G41C U49G G51U C58A
self-cleavage kobs at 160 uM GlcN6P [1]: < 1e-05 s⁻¹

U30A G41C U49A
self-cleavage kobs at 160 uM GlcN6P [1]: < 1e-05 s⁻¹
self-cleavage kobs at 640 uM GlcN6P [2]: < 1e-05 s⁻¹
self-cleavage kobs at 2500 uM GlcN6P [3]: < 1e-05 s⁻¹
self-cleavage kobs at 10000 uM GlcN6P [4]: < 1e-05 s⁻¹
